Data taken from patent publication US20240101959A1, “USE OF IL-2R-BETA-GAMMA AGONIST PEPTIDES IN CELL MANUFACTURING” (MEDIKINE, INC., priority 2022, published 2024).
Like-named read-outs stand apart in the source and are kept apart here.

T1: IL-2Rβ (Homo sapiens, UniProt P14784)
T1 sequence (P14784 27-551): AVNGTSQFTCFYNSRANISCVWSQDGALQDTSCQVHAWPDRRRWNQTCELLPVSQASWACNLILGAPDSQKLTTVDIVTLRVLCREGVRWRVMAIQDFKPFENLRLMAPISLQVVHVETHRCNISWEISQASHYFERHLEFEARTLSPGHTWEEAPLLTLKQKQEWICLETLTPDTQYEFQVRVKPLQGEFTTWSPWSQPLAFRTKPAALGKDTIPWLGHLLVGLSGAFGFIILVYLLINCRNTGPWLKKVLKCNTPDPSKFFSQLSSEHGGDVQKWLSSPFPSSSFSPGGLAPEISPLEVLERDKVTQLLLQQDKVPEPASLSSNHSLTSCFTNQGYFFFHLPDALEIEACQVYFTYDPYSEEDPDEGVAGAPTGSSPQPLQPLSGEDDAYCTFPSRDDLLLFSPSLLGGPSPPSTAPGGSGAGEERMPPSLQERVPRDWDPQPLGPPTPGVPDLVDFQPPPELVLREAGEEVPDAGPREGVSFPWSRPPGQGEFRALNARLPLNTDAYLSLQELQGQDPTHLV

T2: hu-IL-2Rβ subunit (Homo sapiens, UniProt P14784)
T2 sequence (P14784 27-551): T1 sequence (P14784 27-551)

T3: hu-IL-2Rγc subunit (Homo sapiens, UniProt P31785)
T3 sequence (P31785 23-369): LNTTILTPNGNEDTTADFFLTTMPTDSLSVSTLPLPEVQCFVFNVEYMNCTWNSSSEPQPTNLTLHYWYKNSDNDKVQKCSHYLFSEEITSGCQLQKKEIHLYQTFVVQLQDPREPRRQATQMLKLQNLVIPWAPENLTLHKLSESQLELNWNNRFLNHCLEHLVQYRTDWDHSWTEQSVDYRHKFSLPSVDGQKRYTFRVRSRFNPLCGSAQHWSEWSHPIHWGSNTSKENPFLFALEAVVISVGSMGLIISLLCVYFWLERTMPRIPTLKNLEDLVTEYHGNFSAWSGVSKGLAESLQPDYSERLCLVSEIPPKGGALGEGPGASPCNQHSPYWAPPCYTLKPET

T4: hu-IL-2Rγc subunit (human, UniProt P31785 23-262, limits assumed)
T4 construct: also called human interleukin-2 receptor subunit γ; CD132
T4 sequence (looked up): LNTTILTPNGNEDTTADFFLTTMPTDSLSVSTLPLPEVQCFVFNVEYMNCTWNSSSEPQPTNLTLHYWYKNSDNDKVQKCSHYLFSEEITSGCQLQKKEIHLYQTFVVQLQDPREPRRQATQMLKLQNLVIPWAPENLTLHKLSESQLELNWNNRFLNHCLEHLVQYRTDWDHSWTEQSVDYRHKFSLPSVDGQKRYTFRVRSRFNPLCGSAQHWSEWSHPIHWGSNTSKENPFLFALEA

T5: hu-IL-2Rγc subunit (human), P31785
T5 chain: T4 sequence (looked up)


How the values were obtained:
[1] = molecular target: T1, IL-2Rβ; experiment: competition with IL-2 binding to IL-2Rβ
[2] = molecular target: T2, hu-IL-2Rβ subunit; experiment: competitive binding at the specific binding site on the hu-IL-2Rβ subunit
Source text: This specific binding site on the hu-IL-2Rβ subunit to which the group of IL-2Rβ ligands bind can be characterized using competitive binding assays as described.

[3] = molecular target: T3, hu-IL-2Rγc subunit; experiment: competitive binding at the specific binding site on the hu-IL-2Rγc subunit
[4] = molecular target: T4, hu-IL-2Rγc subunit; experiment: phage ELISA competition assay
[5] = molecular target: T4, hu-IL-2Rγc subunit
[6] = molecular target: T5, hu-IL-2Rγc subunit (human), P31785
[7] = molecular target: T5, hu-IL-2Rγc subunit (human), P31785

| IC50 [4] [µM] | IC50 [5] [µM] | Molecule | further results |
| --- | --- | --- | --- |
|  |  | R W G D V G D L L M P L (RWGDVGDLLMPL) [SEQ ID NO: 934] | competition with IL-2 binding to IL-2Rβ [1]: do not bind competitively |
|  |  | N M C L V G D Y W P S C Q I (NMCLVGDYWPSCQI) [SEQ ID NO: 933] | competition with IL-2 binding to IL-2Rβ [1]: do not bind competitively |
|  |  | D C S M W E G V E L C W (DCSMWEGVELCW) [SEQ ID NO: 935] | competition with the group of IL-2Rβ ligands for the specific binding site on the IL-2Rβ subunit [2]: does not compete; competition with IL-2 binding to IL-2Rβ [1]: do not bind competitively |
|  |  | Y D C R I A Q V G E L C D L (YDCRIAQVGELCDL) [SEQ ID NO: 932] | competition with the group of IL-2Rγc ligands (SEQ ID NO: 935-940) for the specific binding site on the hu-IL-2Rγc subunit [3]: does not compete; competition with IL-2 binding to IL-2Rβ [1]: do not bind competitively |
|  |  | S L L K C Y N A S T C A S V F (SLLKCYNASTCASVF) [SEQ ID NO: 723] | competition with the group of IL-2Rγc ligands (SEQ ID NO: 935-940) for the specific binding site on the hu-IL-2Rγc subunit [3]: do not compete |
|  |  | R S C Y Y K R P R L W C S E (RSCYYKRPRLWCSE) [SEQ ID NO: 931] | competition with the group of IL-2Rβ ligands for the specific binding site on the IL-2Rβ subunit [2]: does not compete |
| < 10 | < 100 | ILCQEFEGVELCWLEESLAE [SEQ ID NO 675] |  |
| < 10 | < 100 | VTCQEYEGVELCWTVGCAYS [SEQ ID NO 698] |  |
| < 10 | < 100 | WSKKAEVVCEEWGGVEFCWI [SEQ ID NO 672] |  |
| < 10 | < 100 | ILCEEWQGVELCWLEGGGS [SEQ ID NO 714] |  |
| < 10 | < 100 | VVCQEWEGVELCWYAGECMQ [SEQ ID NO 674] |  |
| < 10 | < 100 | VVCQEWEGVELCWVEPPLLP [SEQ ID NO 686] |  |
| < 10 | < 100 | KLTVECQDWDGVELCWVGVE [SEQ ID NO 684] |  |
| < 10 | < 100 | VGIECEEWAGVELCWL [SEQ ID NO 715] |  |
| < 10 | < 100 | IECEEWAGVELCWL [SEQ ID NO 667] |  |
| < 10 | < 100 | KPVVVCEEWQGVELCWLEIQ [SEQ ID NO 692] |  |
| < 10 | < 100 | KTTVACQDWGGVELCWVERV [SEQ ID NO 689] |  |
| < 10 | < 100 | FAHHGVVECQEWYGVELCWQ [SEQ ID NO 670] |  |
| < 10 | < 100 | VVCEVFQGVELCWCENEEFT [SEQ ID NO 693] |  |
| < 10 | < 100 | RSNQTVVECQDWEGVELCWQ [SEQ ID NO 673] |  |
| < 10 | < 100 | RTGVECQDWHGVELCWPVWE [SEQ ID NO 711] |  |
|  |  | KVCEMWGGVLLCWN (modifications not checked) [SEQ ID NO 936] | IC50 [6]: < 10 µM; IC50 [7]: < 100 µM |
| < 10 | < 100 | GYGVVCEDFRGVELCWLERK [SEQ ID NO 712] |  |
| < 10 | < 100 | KKIVVCQDWGGVELCWTEDD [SEQ ID NO 708] |  |
